Measurements as given in patent US10704056B2, “Constitutively active ABA receptor mutants” (The Regents of the University of California, priority 2011, dated 2020).

How the values were obtained:
[1] = test system: Columbia seeds; assay: Seed dormancy / germination assay of 35S-driven transgenic lines, stratified vs unstratified; assay type: in vivo, Arabidopsis; conditions: 35S-driven overexpression in wild-type Columbia background
Experimental: To investigate the effects of the PYL2^CA3 allele, we performed a number of physiological assays on wild-type and aba2-1 genotypes. Columbia (Col), 35S::PYL2, and 35S::PYL2^CA3 seed samples were divided into two portions; one portion was stratified on ⅓ MS plates for 6 days at 4° C. and the second portion was plated six days later ⅓ MS plates. Both samples were the transferred to room temperature (23° C.) and incubated in darkness. […] Each experiment was performed in triplicate and each point plotted represents the average of tests conducted using 40 to 70 seeds. […] Thus, overexpression of PYL2^CA3 activates the ABA-regulated seed dormancy pathway.
In order to assay dormancy of seeds for Columbia, 35S::GFP-PYL2, and 35S::GFP-PYL2^CA3 were divided into two portions and surface sterilized using chlorine gas (prepared in situ using bleach and HCl). One portion was stratified on ⅓ MS agar plates for 6 days at 4° C. in darkness and the second portion, which was maintained at room temperature, was seeded six days later on the ⅓ MS agar plates; both samples were transferred to a 23° C. light-tight growth chamber and germination scored at 24 hour periods. The homozygous 35S::GFP-PYL2 and 35S::GFP-[…] seeds used in these experiments were ˜5- and ˜6-months post-harvest respectively at the time of the experiment shown in FIG. 12.

[2] = molecular target: T1, ABI1 (Arabidopsis thaliana, UniProt P49597); assay: In vitro PP2C phosphatase (pNPP) receptor activation assay with ABI1; assay type: biochemical; conditions: 600 nM PP2C, 0-4800 nM receptor, no ABA
T1 construct: Full length ABI1 and ABI2 were cloned into a modified pSUMO vector; made in house; host or cells: E. coli BL21 (DE3) pLysS
T1 sequence (P49597 1-434): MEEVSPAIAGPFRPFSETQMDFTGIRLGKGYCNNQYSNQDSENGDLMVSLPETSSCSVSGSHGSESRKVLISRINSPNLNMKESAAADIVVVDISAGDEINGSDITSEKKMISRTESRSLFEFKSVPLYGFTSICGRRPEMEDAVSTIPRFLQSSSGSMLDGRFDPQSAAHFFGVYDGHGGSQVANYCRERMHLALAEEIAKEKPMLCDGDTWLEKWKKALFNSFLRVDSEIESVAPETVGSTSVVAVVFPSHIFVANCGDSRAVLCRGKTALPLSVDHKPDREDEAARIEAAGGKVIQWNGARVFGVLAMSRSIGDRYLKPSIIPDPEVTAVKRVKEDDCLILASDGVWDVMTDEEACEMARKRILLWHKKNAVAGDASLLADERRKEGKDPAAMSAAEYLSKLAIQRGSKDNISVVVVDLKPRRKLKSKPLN
Experimental: Full length ABI1 and ABI2 were cloned into a modified pSUMO vector (LifeSensors Inc, USA) vector yielding 6×His-SUMO fusion proteins; GST-HAB1 was expressed and purified as previously described (Park et al., 2009). Mutant receptors were cloned into pET28 yielding 6×His-fusion proteins. […]. The cultures were pre-incubated 2 hours at 30° C. and, for PP2C expression, media was supplemented with 4 mM MnCl2 one hour after inoculation. After pre-incubation, IPTG was added (1 mM) and cells were induced at 15° C. for 16 hours, after which they were collected by centrifugation, resuspended in 5 ml Buffer A (50 mM NaH2PO4, 300 mM NaCl) +10 mM imidazole, pH 8.0 and stored at −80° C. For purification, cells were thawed, sonicated on ice (60 seconds) and a cleared lysate was then applied a 1 ml-bed volume column of Ni-NTA (Qiagen, USA), washed with 20 column volumes of Buffer A+30 mM imidazole and bound protein eluted with 1 ml of Buffer A+250 mM imidazole. For receptors, the elutate was dialyzed against TBS and for PP2Cs, fusion proteins were desalted by passage over a Sephadex G50 column.
The purified receptors and phosphatases were then used in receptor assays where receptor activation is indicated by inhibition of phosphatase activity, as inferred from initial reaction velocities for PP2C-mediated hydrolysis of the synthetic phosphatase substrate pNPP in reactions containing 600 nM PP2C and either 0, 600, 1200, 2400 or 4800 nM receptor. The receptor assay buffer consisted of 33 mM Tris-OAc, pH 7.9, 66 mM KOAc, 0.1% BSA, 25 mM Mn(OAc)2, 0.1%13-ME and 50 mM pNPP. Immediately after mixing proteins and substrates, reactions were monitored for hydrolysis of pNPP at A405 at ˜2 minutes intervals using a Wallac plate reader. Reaction progressions were plotted, initial velocities calculated and converted to specific activities by comparison to a standard curve for 4-nitrophenol made in the same buffer system. PP2C activity values shown in figures are expressed as %-control phosphatase activity levels, as measured under identical reaction conditions in the absence of receptor protein. The average specific activity level of GST-HAB1, 6×His-SUMO-ABI1 and 6×His-SUMO-ABI2 utilized in our experiments was 4500 (GST-PP2C) or 2500 (SUMO-PP2C) μmol/min/mg, when assayed using the phosphatase substrate pNPP in the absence of PYR1 or other receptors.

B1: PYL2^CA3: PYL2 mutant (H65P, V87F, F165V); expressed in plants as 35S-driven GFP fusion (protein)
chain: HHHHHHMSSSPAVKGLTDEEQKTLEPVIKTYHQFEPDPTTCTSLITQRIHAPASVVWPLIRRFDNPERYKPFVKRCRLISGDGDVGSVREVTFISGLPASTSTERLEFVDDDHRVLSFRVVGGEHRLKNYKSVTSVNEFLNQDSGKVYTVVLESYTVDIPEGNTEEDTKMVVDTVVKLNLQKLGVAATSAPMHDDE
[1]
  seed hyperdormancy (stratification dependent germination): induces a state of hyperdormancy in seeds
[2]
  constitutive receptor activity on ABI1 in the absence of ABA: active towards multiple PP2Cs
